From patent publication US20260167713A1 (UCB, published 2026)

T1: recombinant full-length human beta-catenin (human, UniProt P35222 2-781, biotinylated in the ELISA and SPR assays (sites not given); not biotinylated on the Western blots)
T1 construct: Tags are not described; also called β-catenin; biotinylated beta-catenin
T1 sequence: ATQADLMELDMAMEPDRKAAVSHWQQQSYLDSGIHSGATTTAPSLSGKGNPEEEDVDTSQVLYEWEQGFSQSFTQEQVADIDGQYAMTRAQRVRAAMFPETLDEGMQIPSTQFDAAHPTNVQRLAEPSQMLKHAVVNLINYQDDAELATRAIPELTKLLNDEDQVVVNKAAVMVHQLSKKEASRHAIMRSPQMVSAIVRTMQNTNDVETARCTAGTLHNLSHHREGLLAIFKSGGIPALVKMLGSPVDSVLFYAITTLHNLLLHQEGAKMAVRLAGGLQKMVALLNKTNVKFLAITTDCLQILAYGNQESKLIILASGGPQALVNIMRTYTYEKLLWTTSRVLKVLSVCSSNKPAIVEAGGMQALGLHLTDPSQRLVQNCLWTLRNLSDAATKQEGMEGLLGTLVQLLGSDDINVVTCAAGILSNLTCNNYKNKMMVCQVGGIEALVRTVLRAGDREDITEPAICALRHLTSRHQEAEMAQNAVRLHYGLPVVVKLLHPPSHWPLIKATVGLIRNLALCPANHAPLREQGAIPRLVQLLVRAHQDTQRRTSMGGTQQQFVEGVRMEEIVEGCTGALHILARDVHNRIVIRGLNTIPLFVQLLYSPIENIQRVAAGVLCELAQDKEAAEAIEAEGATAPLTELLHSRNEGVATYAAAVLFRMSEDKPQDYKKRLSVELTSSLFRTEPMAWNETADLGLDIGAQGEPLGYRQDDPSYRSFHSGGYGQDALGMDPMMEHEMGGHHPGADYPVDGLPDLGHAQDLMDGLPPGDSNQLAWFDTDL


Legend:
[1] = target: endogenous beta-catenin (HEK293 cells) (human) (UniProt P35222); experiment: cell-based or functional assay
[2] = target: T1, recombinant full-length human …; experiment: SPR (Biacore T100), biotinylated beta-catenin captured on streptavidin, VHH-scFc in solution
Protocol: SPR-Affinity measurements: Affinity measurements were performed using a Biacore™T100. Streptavidin was immobilised onto the carboxymethylated dextran coated gold surface of a CM5 sensor chip using amine coupling chemistry, as per manufacture's instructions. The concentrations of streptavidin used in flow cells 1˜4 respectively were 0 μg/mL, 5 μg/mL, 15 μg/mL, 45 μg/mL in 10 mM NaOAc pH5. Biotinylated beta-catenin was then captured on flow cells 2-4 whilst flow cell 1 was the control reference cell. Samples of VHH-scFc at 1 in 2, 1 in 5, 1 in 10, 1 in 20 and 1 in 40 dilutions in HBS-EP were passed over all flow cells for 5 minutes at 30 μL/minute. Buffer blanks were run between every sample set and control transfection supernatant samples were included in each run. Between each sample the chip was regenerated by the addition of 30 μL of 2M guanidine hydrochloride followed by 30 μL of 40 mM HCl. Affinity constants were determined by the fitting of resulting data using BiaEvalution software with a Langmuir 1:1 association method, associations were rejected if the Chi2 value was greater than 1; if the residual data points were not randomly distributed or if the residuals were greater than +/−2 RU. The association data were plotted for the most dilute samples which still gave a RU capture response of at least 40RU. A minimum of four different combinations of dilutions and different beta-catenin coated flow cells were used to calculate association ‘on-rate’ (ka) or dissociation data ‘off-rate’ (kd), and used to calculate KD=kd/ka.

[3] = target: T1, recombinant full-length human …; experiment: ELISA on captured biotinylated beta-catenin
[4] = target: T1, recombinant full-length human …; experiment: ELISA: biotinylated beta-catenin captured on streptavidin plates, VHH-scFc in half-log dilutions from 32 nM, anti-mouse Fc HRP, delta OD 630/490 nm [lower panel]
Protocol: FIG. 6: beta-catenin binding ELISA results for parent VHHs and CDR3 mutants. […] The plates were read at 630 and 490 nm and ΔOD recorded. The negative control is a ‘no DNA’ control transfection culture supernatant.
Beta-catenin binding ELISA: ELISA plates were coated with streptavidin ([…]). Biotinylated beta-catenin (1 mg/mL) was added in PBS, for 30 minutes. Blocked samples were added (phage samples or transient VHHscFc samples). After an hour, bound samples were detected using a suitable antibody at 1 in 5,000 dilution in PBS (containing 3% BSA). Detection antibodies were goat anti-M13-HRP (GE Healthcare) or goat anti-mouse Fc HRP (Jackson ImmunoResearch).
The binding of the parent intrabodies and CDR3 mutants to recombinant β-catenin was also tested by ELISA. […] IBV1.CDRAAA and IBS.CDRAAA also appeared to be suitable CDR3 mutant controls for their respective parent except for their lower expression levels within the bioassay. This is not uncommon in conventional antibody expression and single point mutations in antibody CDRs leading to over a 100-fold reduction in expression have been previously reported.

[5] = target: T1, recombinant full-length human …; experiment: Western blot of reduced recombinant beta-catenin on PVDF, probed with IBV1.CDRAAA-scFc transient supernatant at 16 nM, detected with anti-mouse Fc HRP
Protocol: FIG. 5: Reducing anti-beta-catenin Western blots probed by the intrabodies. Gel A:) IBV1-scFc (23 nM), Gel B: IBV2-scFc (110 nM), Gel C: IBV3-scFc (85 nM) and Gel D: IBV1.CDRAAA-scFc (16 nM) transient supernatants. Any binding was detected with t anti-mouse Fc HRP antibody. In each gel, Lane 1) 15 ng beta-catenin, Lane 2) 7.5 ng beta-catenin, Lane 3) 3.75 ng beta-catenin.
The presence of beta-catenin was successfully detected by all three parent VHHs and not by the control mutant IBV1.CDRAAA.

| Binder | firefly luciferase activity signal, PPSP-stimulated HEK293 TCF/LEF reporter bioassay (% of control VHH signal) [1] | Kd [2] [nM] | koff [2] [s⁻¹] | kon [2] [M⁻¹ s⁻¹] | Kd [3] [nM] | further results |
| --- | --- | --- | --- | --- | --- | --- |
| intrabody S (VHH expressed intracellularly) (VHH, not shown: small tags and cut ends) VHH: QVQLVESGGGLVQAGGSLRLSCAASGVSFSRTSLGWFRQAPGKEREFVSVISWIGGTTYYADSLKGRFTISRDNAKSTVYLQMNSLKPEDTALYYCAISNGVLPRTEGAFASWGQGTQVTVSS | < 25 | – | – | – | – | – |
| IBS-scFc (Fc fusion, not shown: a dimerising Fc or GST; large carriers; small tags and cut ends, Single chain mouse IgG Fc construct, used as transient HEK293 supernatant; also called VH-S) VHH: QVQLVESGGGLVQAGGSLRLSCAASGVSFSRTSLGWFRQAPGKEREFVSVISWIGGTTYYADSLKGRFTISRDNAKSTVYLQMNSLKPEDTALYYCAISNGVLPRTEGAFASWGQGTQVTVSS | – | 3.78 | 0.000248 | 65600 | < 10 | – |
| IBS.CDRAAA-scFc (Fc fusion, not shown: a dimerising Fc or GST; small tags and cut ends, CDR3 mutant control of S in the VHH-scFc format; also called VH-S.CDRAAA) VHH: QVQLVQSGGGLVQAGGSLRLSCAASGVSFSRTSLGWFRQAPGKEREFVSVISWIGGTTYYADSLKGRFTISRDNAKSTVYLQMNSLKPEDTALYYCAISNGVLPATAGAAASWGQGTQVTVSS | – | – | – | – | – | binding result [4]: no binding (tested: 32 nM) |
| intrabody V1 (VHH expressed intracellularly) (VHH, not shown: small tags and cut ends) VHH: QVQLVQSGGGLVQPGGSLRLSCAASGSISSNNVMGWYRQGPGKQREFVASITDSDLANYAASVKGRFTISRDNAKNTVNLQMNSLRPEDTDVYYCRLTMMTYPPTISWGQGTQVTVSS | < 25 | – | – | – | – | – |
| IBV1-scFc (Fc fusion, not shown: a dimerising Fc or GST; large carriers; small tags and cut ends, Single chain mouse IgG Fc construct, used as transient HEK293 supernatant; also called VH-V1; VHH-scFc of V1) VHH: QVQLVQSGGGLVQPGGSLRLSCAASGSISSNNVMGWYRQGPGKQREFVASITDSDLANYAASVKGRFTISRDNAKNTVNLQMNSLRPEDTDVYYCRLTMMTYPPTISWGQGTQVTVSS | – | 6.49 | 0.000163 | 25100 | < 10 | – |
| intrabody V2 (VHH expressed intracellularly) (VHH, not shown: small tags and cut ends) VHH: QVQLVQSGGGLVQPGGSLRLSCAASGSISSNNVMGWYRQGPGKQREFVASITDSDLANYAASVKGRFTISRDNAKNTVNLQMNSLRPEDTDVYYCRLTMMTYPPIISWGQGTQVTVSS | < 25 | – | – | – | – | – |
| intrabody V3 (VHH expressed intracellularly) (VHH, not shown: small tags and cut ends) VHH: QVQLVESGGGLVQPGGSLRLSCAASGTISSNNVMGWYRQGPGKQREFVASVTDSDLANYAASVKGRFTISRDNAKNTVNLQMNSLRPEDTGVYYCRLTIMTYPPTISWGQGTQVTVSS | < 25 | – | – | – | – | – |
| IBV3-scFc (Fc fusion, not shown: a dimerising Fc or GST; large carriers; small tags and cut ends, Single chain mouse IgG Fc construct, used as transient HEK293 supernatant; also called VH-V3) VHH: QVQLVESGGGLVQPGGSLRLSCAASGTISSNNVMGWYRQGPGKQREFVASVTDSDLANYAASVKGRFTISRDNAKNTVNLQMNSLRPEDTGVYYCRLTIMTYPPTISWGQGTQVTVSS | – | 4.38 | 0.000169 | 38500 | < 10 | – |
| IBV1.CDRAAA-scFc (Fc fusion, not shown: a dimerising Fc or GST; small tags and cut ends, CDR3 mutant control of V1 in the VHH-scFc format; also called VH-V1.CDRAAA) VHH: QVQLVQSGGGLVQPGGSLRLSCAASGSISSNNVMGWYRQGPGKQREFVASITDSDLANYAASVKGRFTISRDNAKNTVNLQMNSLRPEDTDVYYCRLTMMTAAATISWGQGTQVTVSS | – | – | – | – | – | binding result [5]: no binding (tested: 16 nM) |
| IBV2-scFc (Fc fusion, not shown: a dimerising Fc or GST; large carriers; small tags and cut ends, Single chain mouse IgG Fc construct, used as transient HEK293 supernatant; also called VH-V2) VHH: QVQLVQSGGGLVQPGGSLRLSCAASGSISSNNVMGWYRQGPGKQREFVASITDSDLANYAASVKGRFTISRDNAKNTVNLQMNSLRPEDTDVYYCRLTMMTYPPIISWGQGTQVTVSS | – | 4.47 | 0.000165 | 36900 | < 10 | – |
| intrabody O (VHH expressed intracellularly) (VHH, not shown: small tags and cut ends) VHH: QVQLVQSGGGLVQAGDSLRLACAASEGTFRTNVMGWFRQAPGKEREFVAAISWSGGITHYSNSVKGRFAISRDNAKNTVYLQMNSLKPEDTAVYYCAADPSTTPWNLRVRVNEYEYWGQGTQVTVSS | < 25 | – | – | – | – | inhibition of beta-catenin co-transcriptional activity, HEK293 bioassay stimulated with LiCl2, against IBO.CDRAAA (1) [1]: 65%; inhibition of beta-catenin co-transcriptional activity, HEK293 bioassay stimulated with Wnt3a-conditioned media, against IBO.CDRAAA (1) [1]: 66%; percentage inhibition of firefly luciferase production in the bioassay, IBO against IBO.CDRAAA (1) [1]: 83% |
| IBO-scFc (Fc fusion, not shown: a dimerising Fc or GST; large carriers; small tags and cut ends, Single chain mouse IgG Fc construct; It is placed under this molecule; also called VH-O; biotinylated-'O') VHH: QVQLVQSGGGLVQAGDSLRLACAASEGTFRTNVMGWFRQAPGKEREFVAAISWSGGITHYSNSVKGRFAISRDNAKNTVYLQMNSLKPEDTAVYYCAADPSTTPWNLRVRVNEYEYWGQGTQVTVSS | – | 3.65 | 0.00026 | 71100 | < 10 | – |
| IBO.CDRAAA (1)-scFc (Fc fusion, not shown: a dimerising Fc or GST; small tags and cut ends, CDR3 mutant control of O in the VHH-scFc format; also called VH-O.CDRAAA(1)) VHH: QVQLVQSGGGLVQAGDSLRLACAASEGTFRTNVMGWFRQAPGKEREFVAAISWSGGITHYSNSVKGRFAISRDNAKNTVYLQMNSLKPEDTAVYYCAADPSTTAAALRVRVNEYEYWGQGTQVTVSS | – | – | – | – | – | binding result [4]: no binding (tested: 32 nM) |
| IBO.CDRAAA (2)-scFc (Fc fusion, not shown: a dimerising Fc or GST; small tags and cut ends, CDR3 mutant of O in the VHH-scFc format; also called VH-O.CDRAAA(2)) VHH: QVQLVQSGGGLVQAGDSLRLACAASEGTFRTNVMGWFRQAPGKEREFVAAISWSGGITHYSNSVKGRFAISRDNAKNTVYLQMNSLKPEDTAVYYCAADPSTTPWNLAAAVNEYEYWGQGTQVTVSS | – | – | – | – | – | binding result [4]: binds |
